Test results published in FireProtDB (doi:10.1021/bi00116a007).

Settings: Escherichia coli (strain K12); pH 7.5; 25 °C; Urea; DSC; potassium-HEPES 40 mM; reversible: yes; whole UniProt chain shown

B1: Aspartate aminotransferase wild type, P00509 (protein)
chain: MFENITAAPADPILGLADLFRADERPGKINLGIGVYKDETGKTPVLTSVKKAEQYLLENETTKNYLGIDGIPEFGRCTQELLFGKGSALINDKRARTAQTPGGTGALRVAADFLAKNTSVKRVWVSNPSWPNHKSVFNSAGLEVREYAYYDAENHTLDFDALINSLNEAQAGDVVLFHGCCHNPTGIDPTLEQWQTLAQLSVEKGWLPLFDFAYQGFARGLEEDAEGLRAFAAMHKELIVASSYSKNFGLYNERVGACTLVAADSETVDRAFSQMKAAIRANYSNPPAHGASVVATILSNDALRAIWEQELTDMRQRIQRMRQLFVNTLQEKGANRDFSFIIKQNGMFSFSGLTKEQVLRLREEFGVYAVASGRVNVAGMTPDNMAPLCEAIVAVL
denaturant m value: 2.56 kcal/mol/M | denaturant midpoint (higher = more stable): 3.89 M | unfolding free energy: 9.96 kcal/mol
